We go through two molecules from article PMC9753469, “Structure and functional mapping of the KRAB‐KAP1 repressor complex” (The EMBO Journal, 2022).

A word on the Kd: it is a measure of binding affinity in units of concentration.

This assay has as its target T1, KAP1 RBCC (wild type), SPR analyte (human (by the printed UniProt entry), UniProt Q13263 50-413).
T1 construct: KAP1 (TRIM28) RBCC motif; probably as in Stoll et al, 2019; also called WT KAP1 RBCC; wild-type KAP1; source: E. coli BL21(DE3)
The assay is described as follows: SPR; Biacore T200, CM5 chip; MBP-KRAB immobilised (about 300 RU ZNF93 WT, 600 RU E35R); KAP1 RBCC flowed, 1:2 dilution series from 40 μM; 20 mM HEPES pH 8.0, 0.5 M NaCl, 0.5 mM TCEP, 20°C; biphasic kinetic model. The settings on record: both partners purified. (In SPR one partner is held on a chip, and binding of the other changes the refractive index at the surface.)

T1 sequence (Q13263 50-413): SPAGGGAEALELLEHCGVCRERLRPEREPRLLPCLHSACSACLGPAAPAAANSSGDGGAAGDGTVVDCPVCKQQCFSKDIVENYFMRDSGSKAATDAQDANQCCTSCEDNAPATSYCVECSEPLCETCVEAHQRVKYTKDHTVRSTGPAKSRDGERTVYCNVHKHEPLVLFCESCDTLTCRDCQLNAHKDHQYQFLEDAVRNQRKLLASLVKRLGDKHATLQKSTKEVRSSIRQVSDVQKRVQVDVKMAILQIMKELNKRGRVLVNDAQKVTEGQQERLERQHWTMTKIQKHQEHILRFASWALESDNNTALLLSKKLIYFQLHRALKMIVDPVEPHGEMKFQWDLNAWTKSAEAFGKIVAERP

B1: MBP-KRAB (ZNF93 KRAB E35R) (domain or fragment)
chain: not shown
notes: ZNF93, human, residues 2-71 (KRAB domain), E35R; also called ZNF93 E35R; source: E. coli BL21(DE3); not shown: MBP, N-terminal, kept
The molecule B1 displayed a Kd of 198 nM.

B2: MBP-KRAB (ZNF93 KRAB, wild type) (domain or fragment)
chain: not shown
notes: ZNF93, human, residues 2-71 (KRAB domain); The purification of MBP-KRAB alone is not described; also called ZNF93 WT; source: E. coli BL21(DE3); not shown: MBP, N-terminal, kept
B2 gave a Kd of 7.5 nM.
